B1: Azoarcus group I ribozyme (parent)
chain: GUGCCUUGCGCCGGGAAACCACGCAAGGGAUGGUGUCAAAUUCGGCGAAACCUAAGCGCCCGCCCGGGCGUAUGGCAACGCCGAGCCAAGCUUCGGCGCCUGCGCCGAUGAAGGUGUAGAGACUAGACGGCACCCACCUAAGGCAAACGCUAUGGUGAAGGCAUAGUCCAGGGAGUGGCGAAAGUCACACAAACCGG

Variants of: B1
Experiment: reverse-splicing fitness (ratio to wild type); higher = more active; in vitro selection; Mg2+ level not given
Method in brief: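 An in vitro group I ribozyme library with randomized positions was T7-transcribed and gel-purified. In triplicate, 10 pmol RNA in EPPS pH 7.5 was reacted with 50 pmoles of a 30-nt RNA substrate for 1 h at 37 °C across several added MgCl2 levels (1–48 mM), then stopped with EDTA. Products were reverse transcribed from a substrate-complementary primer, PCR-amplified and sequenced (HiSeq 4000). Fitness is a variant's read proportion after selection over that before, normalised to wild type.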
C82G A111U A120U A145U C150G C169G U176G gave a reverse-splicing fitness of 0.0021.
With C82G A111U A120U A145U C150G C169G U176C the reverse-splicing fitness was 0.00282.
Variant C82G A111U A120U A145U C150G C169G U176A has a reverse-splicing fitness of 0.0031.
C82G A111U A120U C150G C169G U176C gave a reverse-splicing fitness of 0.00362.
C82G A111U A120U C150G C169G U176G showed a reverse-splicing fitness of 0.003.
Work on C82G A111U A120U C150G C169G U176A yielded a reverse-splicing fitness of 0.00513.
Variant C82G A111U A120U U176A has a reverse-splicing fitness of 0.0109.
C82G A111U A120U U176G gave a reverse-splicing fitness of 0.00464.
With C82G A111U A120U U176C the reverse-splicing fitness was 0.0167.
Variant C82G A111U A120U C169A U176A has a reverse-splicing fitness of 0.00362.
Work on C82G A111U A120U C169A U176C yielded a reverse-splicing fitness of 0.00299.
For C82G A111U A120U C169A U176G, the reverse-splicing fitness was 0.00169.
Variant C82G A111U C150A C169G U176A has a reverse-splicing fitness of 0.021.
C82G A111U C150A C169G U176C gave a reverse-splicing fitness of 0.0229.
Work on C82G A111U C150A C169G U176G yielded a reverse-splicing fitness of 0.0075.
Work on C82G A111U A120U C150U C169A U176G yielded a reverse-splicing fitness of 0.00241.
In the case of C82G A111U A120U C150U C169A U176C, the reverse-splicing fitness is reported as 0.00328.
In the case of C82G A111U A120U C150U C169A U176A, the reverse-splicing fitness is reported as 0.00512.
Work on C82G A111U A120U C150A C169U yielded a reverse-splicing fitness of 0.00448.
In the case of C82G A111U A120U C150A C169G, the reverse-splicing fitness is reported as 0.00506.
In the case of C82G A111U A120U C150A C169A, the reverse-splicing fitness is reported as 0.0047.
C82G A111U A145C C150A C169A U176G showed a reverse-splicing fitness of 0.0075.
With C82G A111U A145C C150A C169A U176A the reverse-splicing fitness was 0.0125.
In the case of C82G A111U A145C C150A C169A U176C, the reverse-splicing fitness is reported as 0.00716.
For C82G A111U A145U C150G C169A U176C, the reverse-splicing fitness was 0.0124.
C82G A111U A145U C150G C169A U176A showed a reverse-splicing fitness of 0.0117.
For C82G A111U A145U C150G C169A U176G, the reverse-splicing fitness was 0.00706.
C82G A111U A145G C150A U176A showed a reverse-splicing fitness of 0.0322.
C82G A111U A145G C150A U176G gave a reverse-splicing fitness of 0.0141.
C82G A111U A145G C150A U176C gave a reverse-splicing fitness of 0.0447.
Variant C82G A111U A145G C169U U176C has a reverse-splicing fitness of 0.0155.
Work on C82G A111U A145G C169U U176G yielded a reverse-splicing fitness of 0.00532.
With C82G A111U A145G C169U U176A the reverse-splicing fitness was 0.0134.
C82G A111U A145G C150A showed a reverse-splicing fitness of 0.0434.
C82G A111U A145G C150G gave a reverse-splicing fitness of 0.0339.
Variant C82G A111U A145G C150U has a reverse-splicing fitness of 0.298.
With C82G A111U A120U A145U U176C the reverse-splicing fitness was 0.0192.
For C82G A111U A120U A145U U176G, the reverse-splicing fitness was 0.00425.
In the case of C82G A111U A120U A145U U176A, the reverse-splicing fitness is reported as 0.0108.
For C82G A111U A145C C169A U176A, the reverse-splicing fitness was 0.0121.
C82G A111U A145C C169A U176C gave a reverse-splicing fitness of 0.00791.
Work on C82G A111U A145C C169A U176G yielded a reverse-splicing fitness of 0.00501.
C82G A111U A120U C150G C169U showed a reverse-splicing fitness of 0.00549.
With C82G A111U A120U C150G C169A the reverse-splicing fitness was 0.00722.
Variant C82G A111U A120U C150G C169G has a reverse-splicing fitness of 0.0064.
Variant C82G A111U A145U C150U C169A U176A has a reverse-splicing fitness of 0.0143.
With C82G A111U A145U C150U C169A U176C the reverse-splicing fitness was 0.0125.
C82G A111U A145U C150U C169A U176G showed a reverse-splicing fitness of 0.00678.
C82G A111U A145G C150U C169A U176A showed a reverse-splicing fitness of 0.0163.
C82G A111U A145G C150U C169A U176C showed a reverse-splicing fitness of 0.0164.
Variant C82G A111U A145G C150U C169A U176G has a reverse-splicing fitness of 0.00701.
With C82G A111U A145C C150A C169U U176G the reverse-splicing fitness was 0.00599.
C82G A111U A145C C150A C169U U176A showed a reverse-splicing fitness of 0.0163.
Work on C82G A111U A145C C150A C169U U176C yielded a reverse-splicing fitness of 0.00987.
C82G A111U A120U C169U U176C gave a reverse-splicing fitness of 0.00393.
In the case of C82G A111U A120U C169U U176A, the reverse-splicing fitness is reported as 0.00485.
C82G A111U A120U C169U U176G gave a reverse-splicing fitness of 0.00182.
With C82G A111U A145U C150G U176G the reverse-splicing fitness was 0.0057.
C82G A111U A145U C150G U176C gave a reverse-splicing fitness of 0.0254.
C82G A111U A145U C150G U176A gave a reverse-splicing fitness of 0.0141.
For C82G A111U A145U C150U U176C, the reverse-splicing fitness was 0.152.
C82G A111U A145U C150U U176A showed a reverse-splicing fitness of 0.124.
For C82G A111U A145U C150U U176G, the reverse-splicing fitness was 0.043.
Variant C82G A111U A120U A145U C169G U176A has a reverse-splicing fitness of 0.00265.
In the case of C82G A111U A120U A145U C169G U176C, the reverse-splicing fitness is reported as 0.0026.
Work on C82G A111U A120U A145U C169G U176G yielded a reverse-splicing fitness of 0.00186.
C82G A111U A120U C150G showed a reverse-splicing fitness of 0.00761.
With C82G A111U A120U C150A the reverse-splicing fitness was 0.00965.
C82G A111U A120U C150U gave a reverse-splicing fitness of 0.0256.
C82G A111U A120U A145U C169A gave a reverse-splicing fitness of 0.00258.
With C82G A111U A120U A145U C169U the reverse-splicing fitness was 0.00419.
For C82G A111U A120U A145U C169G, the reverse-splicing fitness was 0.00331.
C82G A111U A145C C169U U176G gave a reverse-splicing fitness of 0.00474.
C82G A111U A145C C169U U176C showed a reverse-splicing fitness of 0.0119.
C82G A111U A145C C169U U176A gave a reverse-splicing fitness of 0.014.
Work on C82G A111U A120U A145U C169U U176G yielded a reverse-splicing fitness of 0.00177.
C82G A111U A120U A145U C169U U176C gave a reverse-splicing fitness of 0.00275.
In the case of C82G A111U A120U A145U C169U U176A, the reverse-splicing fitness is reported as 0.00233.
With C82G A111U A120U A145U C150G C169U the reverse-splicing fitness was 0.0032.
C82G A111U A120U A145U C150G C169G showed a reverse-splicing fitness of 0.00336.
Variant C82G A111U A120U A145U C150G C169A has a reverse-splicing fitness of 0.00362.
Variant C82G A111U A145C C150U C169G has a reverse-splicing fitness of 0.00762.
With C82G A111U A145C C150U C169U the reverse-splicing fitness was 0.0104.
Work on C82G A111U A145C C150U C169A yielded a reverse-splicing fitness of 0.00882.

Source: the RNAGym collection of RNA variant scans (doi:10.1093/molbev/msab373)
